Paper PMC9482650, “Quantitative fragmentomics allow affinity mapping of interactomes” (Nature Communications, 2022)

Tests used:
Assay in all cases: holdup assay
Parameters in all cases: key: below the threshold = too weak to quantify, mostly under pKd 3.1 to 4
Conditions in all cases: plain residues with an end cap or a label only (N-terminal biotin on a linker: ado-ado)
Inadl_8, Q8NI35 = target: Inadl_8, Q8NI35
SHANK1, Q9Y566 = target: T1, SHANK1, Q9Y566
T1 sequence (Q9Y566 658-767, limits assumed, looked up): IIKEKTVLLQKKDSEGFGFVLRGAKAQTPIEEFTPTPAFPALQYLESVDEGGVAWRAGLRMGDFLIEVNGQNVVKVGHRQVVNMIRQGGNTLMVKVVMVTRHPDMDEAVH

LDB3, O75112 = target: LDB3, O75112
ARHGEF11, O15085 = target: T2, ARHGEF11, O15085
T2 sequence (O15085 42-136, limits assumed, looked up): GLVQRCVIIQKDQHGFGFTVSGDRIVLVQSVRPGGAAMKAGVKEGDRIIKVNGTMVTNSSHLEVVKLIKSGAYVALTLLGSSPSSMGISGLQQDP

TJP3_3, O95049 = target: T3, TJP3_3, O95049
T3 sequence (O95049 375-456, limits assumed, looked up): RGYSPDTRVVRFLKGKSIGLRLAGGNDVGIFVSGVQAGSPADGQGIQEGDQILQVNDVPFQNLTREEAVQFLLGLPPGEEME

DLG4_1, P78352 = target: DLG4_1, P78352
LNX2_3, Q8N448 = target: T4, LNX2_3, Q8N448
T4 sequence (Q8N448 463-564, limits assumed, looked up): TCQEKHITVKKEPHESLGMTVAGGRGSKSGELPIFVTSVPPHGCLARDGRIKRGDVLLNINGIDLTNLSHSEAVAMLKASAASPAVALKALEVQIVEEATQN

LIN7C, Q9NUP9 = target: T5, LIN7C, Q9NUP9
T5 sequence (Q9NUP9 88-185, limits assumed, looked up): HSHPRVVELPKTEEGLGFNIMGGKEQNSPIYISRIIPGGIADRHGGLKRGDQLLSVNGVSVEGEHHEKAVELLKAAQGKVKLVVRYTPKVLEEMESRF

LRRC7, Q96NW7 = target: T6, LRRC7, Q96NW7
T6 sequence (Q96NW7 1440-1537, limits assumed, looked up): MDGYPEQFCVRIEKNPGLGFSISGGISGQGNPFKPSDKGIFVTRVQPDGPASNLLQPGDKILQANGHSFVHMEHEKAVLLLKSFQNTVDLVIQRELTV

Inadl_4, Q8NI35 = target: Inadl_4, Q8NI35
MAGI3_2, Q5TCQ9 = target: MAGI3_2, Q5TCQ9
PDLIM1, O00151 = target: PDLIM1, O00151
Inadl_2, Q8NI35 = target: Inadl_2, Q8NI35
GRID2IP_1, A4D2P6 = target: GRID2IP_1, A4D2P6
FRMPD2_1, Q68DX3 = target: FRMPD2_1, Q68DX3
ARHGAP21, Q5T5U3 = target: T7, ARHGAP21, Q5T5U3
T7 sequence (Q5T5U3 45-169, limits assumed, looked up): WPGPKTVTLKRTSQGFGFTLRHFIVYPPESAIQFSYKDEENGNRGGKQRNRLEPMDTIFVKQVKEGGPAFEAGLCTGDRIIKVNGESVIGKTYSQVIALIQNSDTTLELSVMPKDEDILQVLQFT

NHERF4_1, Q86UT5-2 = target: NHERF4_1, Q86UT5-2
PTPN3, P26045 = target: PTPN3, P26045
MAGI2_3, Q86UL8 = target: MAGI2_3, Q86UL8
RAPGEF6, Q8TEU7 = target: T8, RAPGEF6, Q8TEU7
T8 sequence (Q8TEU7 525-625, limits assumed, looked up): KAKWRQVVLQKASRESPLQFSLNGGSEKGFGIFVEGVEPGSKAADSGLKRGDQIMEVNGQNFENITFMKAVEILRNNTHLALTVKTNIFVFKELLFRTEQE

FRMPD2_2, Q68DX3 = target: FRMPD2_2, Q68DX3
SCRIB_2, Q14160 = target: SCRIB_2, Q14160
DLG2_3, Q15700 = target: DLG2_3, Q15700
APBA1_2, Q02410 = target: T9, APBA1_2, Q02410
T9 sequence (Q02410 742-832, limits assumed, looked up): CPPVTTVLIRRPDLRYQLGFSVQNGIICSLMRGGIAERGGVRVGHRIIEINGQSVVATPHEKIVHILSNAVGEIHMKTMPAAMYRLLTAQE

APBA1_1, Q02410 = target: T10, APBA1_1, Q02410
T10 sequence (Q02410 651-752, limits assumed, looked up): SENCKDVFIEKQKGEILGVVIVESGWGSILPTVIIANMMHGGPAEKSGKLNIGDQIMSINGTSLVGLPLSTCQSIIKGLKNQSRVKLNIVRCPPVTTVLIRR

PARD3_3, Q8TEW0 = target: PARD3_3, Q8TEW0
MAGI2_4, Q86UL8 = target: MAGI2_4, Q86UL8
NHERF4_2, Q86UT5 = target: NHERF4_2, Q86UT5
Chain of NHERF4_2, Q86UT5 (Q86UT5 220-308): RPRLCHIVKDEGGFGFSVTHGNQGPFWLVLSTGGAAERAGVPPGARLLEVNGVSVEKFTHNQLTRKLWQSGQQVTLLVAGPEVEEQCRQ

Chain of Inadl_2, Q8NI35 (Q8NI35 238-335): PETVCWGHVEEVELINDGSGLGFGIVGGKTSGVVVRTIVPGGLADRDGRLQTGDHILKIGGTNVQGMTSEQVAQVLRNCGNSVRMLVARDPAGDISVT
Chain of PDLIM1, O00151 (O00151 1-87): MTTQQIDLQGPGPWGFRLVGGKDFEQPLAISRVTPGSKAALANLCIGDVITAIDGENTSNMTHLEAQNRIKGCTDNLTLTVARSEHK
Chain of FRMPD2_2, Q68DX3 (Q68DX3 944-1038): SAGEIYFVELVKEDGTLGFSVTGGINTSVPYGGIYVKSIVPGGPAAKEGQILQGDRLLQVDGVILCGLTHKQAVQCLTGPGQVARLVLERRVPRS
Chain of LDB3, O75112 (O75112 1-94): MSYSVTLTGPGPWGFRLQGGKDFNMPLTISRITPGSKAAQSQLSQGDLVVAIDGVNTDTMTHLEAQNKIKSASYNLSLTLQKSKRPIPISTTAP
Chain of MAGI2_4, Q86UL8 (Q86UL8 772-865): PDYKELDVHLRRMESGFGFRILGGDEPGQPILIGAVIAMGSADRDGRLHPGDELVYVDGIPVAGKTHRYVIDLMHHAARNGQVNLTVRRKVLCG
Chain of Inadl_8, Q8NI35 (Q8NI35 1425-1530): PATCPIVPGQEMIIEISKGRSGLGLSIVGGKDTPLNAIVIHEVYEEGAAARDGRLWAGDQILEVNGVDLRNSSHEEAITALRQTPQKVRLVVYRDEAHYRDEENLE
Chain of DLG4_1, P78352 (P78352 62-152): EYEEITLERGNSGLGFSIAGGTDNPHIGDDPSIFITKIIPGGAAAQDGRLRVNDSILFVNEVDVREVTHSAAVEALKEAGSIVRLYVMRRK
Chain of PARD3_3, Q8TEW0 (Q8TEW0 582-685): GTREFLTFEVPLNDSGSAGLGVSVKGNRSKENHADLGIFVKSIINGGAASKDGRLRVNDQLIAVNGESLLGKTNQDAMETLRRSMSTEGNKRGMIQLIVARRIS
Chain of SCRIB_2, Q14160 (Q14160 857-960): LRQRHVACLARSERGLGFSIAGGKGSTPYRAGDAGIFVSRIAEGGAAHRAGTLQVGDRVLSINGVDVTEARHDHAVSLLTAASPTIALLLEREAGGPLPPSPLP
Chain of PTPN3, P26045 (P26045 505-587): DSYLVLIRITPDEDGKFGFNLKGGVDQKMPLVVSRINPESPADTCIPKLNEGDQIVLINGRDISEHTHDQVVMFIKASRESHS
Chain of GRID2IP_1, A4D2P6 (A4D2P6 1-87): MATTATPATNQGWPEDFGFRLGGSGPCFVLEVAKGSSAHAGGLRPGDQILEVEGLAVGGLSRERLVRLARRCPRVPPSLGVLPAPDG
Chain of MAGI3_2, Q5TCQ9 (Q5TCQ9 398-503): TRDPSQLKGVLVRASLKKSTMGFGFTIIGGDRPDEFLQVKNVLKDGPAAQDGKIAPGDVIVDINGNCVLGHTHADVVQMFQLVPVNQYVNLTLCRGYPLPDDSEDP
Chain of Inadl_4, Q8NI35 (Q8NI35 547-651): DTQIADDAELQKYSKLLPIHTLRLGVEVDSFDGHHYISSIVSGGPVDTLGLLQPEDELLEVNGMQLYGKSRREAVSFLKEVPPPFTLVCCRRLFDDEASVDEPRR
Chain of FRMPD2_1, Q68DX3 (Q68DX3 770-861): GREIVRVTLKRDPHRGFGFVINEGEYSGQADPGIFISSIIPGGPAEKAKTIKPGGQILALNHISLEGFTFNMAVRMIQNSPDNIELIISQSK
Chain of MAGI2_3, Q86UL8 (Q86UL8 600-682): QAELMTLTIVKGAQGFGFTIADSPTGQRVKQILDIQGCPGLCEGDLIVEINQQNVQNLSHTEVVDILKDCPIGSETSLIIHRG
Chain of NHERF4_1, Q86UT5-2 (Q86UT5 other isoform, or with tags, fused parts or gaps): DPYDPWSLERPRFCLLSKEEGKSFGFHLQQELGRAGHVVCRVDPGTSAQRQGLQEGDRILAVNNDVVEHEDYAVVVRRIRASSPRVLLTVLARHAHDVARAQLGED

pKd (Inadl_8, Q8NI35)	pKd (SHANK1, Q9Y566)	pKd (LDB3, O75112)	pKd (ARHGEF11, O15085)	pKd (TJP3_3, O95049)	pKd (DLG4_1, P78352)	pKd (LNX2_3, Q8N448)	pKd (LIN7C, Q9NUP9)	pKd (LRRC7, Q96NW7)	pKd (Inadl_4, Q8NI35)	pKd (MAGI3_2, Q5TCQ9)	pKd (PDLIM1, O00151)	pKd (Inadl_2, Q8NI35)	pKd (GRID2IP_1, A4D2P6)	pKd (FRMPD2_1, Q68DX3)	pKd (ARHGAP21, Q5T5U3)	pKd (NHERF4_1, Q86UT5-2)	pKd (PTPN3, P26045)	pKd (MAGI2_3, Q86UL8)	pKd (RAPGEF6, Q8TEU7)	also measured	Binder
below the threshold	below the threshold	5.16	4.05	below the threshold	below the threshold	below the threshold	below the threshold	below the threshold	below the threshold	below the threshold	5.47	below the threshold	below the threshold	below the threshold	below the threshold	below the threshold	4.33	below the threshold	below the threshold	pKd (FRMPD2_2, Q68DX3): below the threshold; pKd (SCRIB_2, Q14160): below the threshold; pKd (DLG2_3, Q15700): below the threshold; pKd (APBA1_2, Q02410): below the threshold; pKd (APBA1_1, Q02410): below the threshold	NTALVESEDL [PALLS, Q8WX93;Q8WX93-1]
below the threshold	below the threshold	below the threshold	below the threshold	below the threshold	below the threshold	below the threshold	4.03	below the threshold	below the threshold	below the threshold	below the threshold	below the threshold	below the threshold	below the threshold	below the threshold	3.99	3.93	below the threshold	below the threshold	pKd (PARD3_3, Q8TEW0): below the threshold; pKd (FRMPD2_2, Q68DX3): below the threshold; pKd (SCRIB_2, Q14160): below the threshold; pKd (MAGI2_4, Q86UL8): below the threshold; pKd (NHERF4_2, Q86UT5): below the threshold; pKd (APBA1_2, Q02410): below the threshold; pKd (APBA1_1, Q02410): below the threshold	VKQYADVEGF [HNRNPK, P61978;P61978-2]
below the threshold	4.78	below the threshold	below the threshold	below the threshold	below the threshold	below the threshold	below the threshold	below the threshold	below the threshold	below the threshold	below the threshold	below the threshold	below the threshold	below the threshold	4.05	3.75	below the threshold	below the threshold	below the threshold	pKd (PARD3_3, Q8TEW0): below the threshold; pKd (FRMPD2_2, Q68DX3): below the threshold; pKd (SCRIB_2, Q14160): below the threshold; pKd (MAGI2_4, Q86UL8): below the threshold; pKd (DLG2_3, Q15700): below the threshold; pKd (NHERF4_2, Q86UT5): below the threshold; pKd (APBA1_2, Q02410): below the threshold; pKd (APBA1_1, Q02410): below the threshold	PAALPESTHM [SLC9A3, P48764]
3.5	below the threshold	below the threshold	below the threshold	3.68	below the threshold	below the threshold	below the threshold	below the threshold	below the threshold	3.67	below the threshold	below the threshold	below the threshold	below the threshold	3.84	below the threshold	below the threshold	below the threshold	below the threshold	pKd (PARD3_3, Q8TEW0): below the threshold; pKd (FRMPD2_2, Q68DX3): below the threshold; pKd (SCRIB_2, Q14160): below the threshold; pKd (MAGI2_4, Q86UL8): below the threshold; pKd (DLG2_3, Q15700): below the threshold; pKd (NHERF4_2, Q86UT5): below the threshold; pKd (APBA1_2, Q02410): 3.73; pKd (APBA1_1, Q02410): below the threshold	SKQFDKNAYV [CLDN10, P78369]
below the threshold	4.63	3.55	3.62	below the threshold	below the threshold	below the threshold	4.01	below the threshold	below the threshold	below the threshold	below the threshold	below the threshold	below the threshold	below the threshold	below the threshold	3.67	4.84	below the threshold	below the threshold	pKd (PARD3_3, Q8TEW0): below the threshold; pKd (FRMPD2_2, Q68DX3): below the threshold; pKd (SCRIB_2, Q14160): 3.67; pKd (MAGI2_4, Q86UL8): below the threshold; pKd (DLG2_3, Q15700): 3.74; pKd (NHERF4_2, Q86UT5): below the threshold; pKd (APBA1_2, Q02410): 3.58; pKd (APBA1_1, Q02410): below the threshold	VYEVPVETKF [SLC26A3, P40879]
